Data: IntAct's records for PubMed 31515488

B1: Keratin, type II cytoskeletal 6A (Homo sapiens), P02538 (parent)
chain: MASTSTTIRSHSSSRRGFSANSARLPGVSRSGFSSVSVSRSRGSGGLGGACGGAGFGSRSLYGLGGSKRISIGGGSCAISGGYGSRAGGSYGFGGAGSGFGFGGGAGIGFGLGGGAGLAGGFGGPGFPVCPPGGIQEVTVNQSLLTPLNLQIDPTIQRVRAEEREQIKTLNNKFASFIDKVRFLEQQNKVLETKWTLLQEQGTKTVRQNLEPLFEQYINNLRRQLDSIVGERGRLDSELRGMQDLVEDFKNKYEDEINKRTAAENEFVTLKKDVDAAYMNKVELQAKADTLTDEINFLRALYDAELSQMQTHISDTSVVLSMDNNRNLDLDSIIAEVKAQYEEIAQRSRAEAESWYQTKYEELQVTAGRHGDDLRNTKQEIAEINRMIQRLRSEIDHVKKQCANLQAAIADAEQRGEMALKDAKNKLEGLEDALQKAKQDLARLLKEYQELMNVKLALDVEIATYRKLLEGEECRLNGEGVGQVNISVVQSTVSSGYGGASGVGSGLGLGGGSSYSYGSGLGVGGGFSSSSGRAIGGGLSSVGGGSSTIKYTTTSSSSRKSYKH
B2: Ligand-dependent corepressor (Homo sapiens), Q96JN0 (parent)
chain: MQRMIQQFAAEYTSKNSSTQDPSQPNSTKNQSLPKASPVTTSPTAATTQNPVLSKLLMADQDSPLDLTVRKSQSEPSEQDGVLDLSTKKSPCAGSTSLSHSPGCSSTQGNGRPGRPSQYRPDGLRSGDGVPPRSLQDGTREGFGHSTSLKVPLARSLQISEELLSRNQLSTAASLGPSGLQNHGQHLILSREASWAKPHYEFNLSRMKFRGNGALSNISDLPFLAENSAFPKMALQAKQDGKKDVSHSSPVDLKIPQVRGMDLSWESRTGDQYSYSSLVMGSQTESALSKKLRAILPKQSRKSMLDAGPDSWGSDAEQSTSGQPYPTSDQEGDPGSKQPRKKRGRYRQYNSEILEEAISVVMSGKMSVSKAQSIYGIPHSTLEYKVKERLGTLKNPPKKKMKLMRSEGPDVSVKIELDPQGEAAQSANESKNE
B3: Myosin light polypeptide 6 (Homo sapiens), P60660 (parent)
chain: MCDFTEDQTAEFKEAFQLFDRTGDGKILYSQCGDVMRALGQNPTNAEVLKVLGNPKSDEMNVKVLDFEHFLPMLQTVAKNKDQGTYEDYVEGLRVFDKEGNGTVMGAEIRHVLVTLGEKMTEEEVEMLVAGHEDSNGCINYEAFVRHILSG
B4: Nuclear pore glycoprotein p62 (Homo sapiens), P37198 (parent)
chain: MSGFNFGGTGAPTGGFTFGTAKTATTTPATGFSFSTSGTGGFNFGAPFQPATSTPSTGLFSLATQTPATQTTGFTFGTATLASGGTGFSLGIGASKLNLSNTAATPAMANPSGFGLGSSNLTNAISSTVTSSQGTAPTGFVFGPSTTSVAPATTSGGFSFTGGSTAQPSGFNIGSAGNSAQPTAPATLPFTPATPAATTAGATQPAAPTPTATITSTGPSLFASIATAPTSSATTGLSLCTPVTTAGAPTAGTQGFSLKAPGAASGTSTTTSTAATATATTTSSSSTTGFALNLKPLAPAGIPSNTAAAVTAPPGPGAAAGAAASSAMTYAQLESLINKWSLELEDQERHFLQQATQVNAWDRTLIENGEKITSLHREVEKVKLDQKRLDQELDFILSQQKELEDLLSPLEELVKEQSGTIYLQHADEEREKTYKLAENIDAQLKRMAQDLKDIIEHLNTSGAPADTSDPLQQICKILNAHMDSLQWIDQNSALLQRKVEEVTKVCEGRRKEQERSFRITFD
partner: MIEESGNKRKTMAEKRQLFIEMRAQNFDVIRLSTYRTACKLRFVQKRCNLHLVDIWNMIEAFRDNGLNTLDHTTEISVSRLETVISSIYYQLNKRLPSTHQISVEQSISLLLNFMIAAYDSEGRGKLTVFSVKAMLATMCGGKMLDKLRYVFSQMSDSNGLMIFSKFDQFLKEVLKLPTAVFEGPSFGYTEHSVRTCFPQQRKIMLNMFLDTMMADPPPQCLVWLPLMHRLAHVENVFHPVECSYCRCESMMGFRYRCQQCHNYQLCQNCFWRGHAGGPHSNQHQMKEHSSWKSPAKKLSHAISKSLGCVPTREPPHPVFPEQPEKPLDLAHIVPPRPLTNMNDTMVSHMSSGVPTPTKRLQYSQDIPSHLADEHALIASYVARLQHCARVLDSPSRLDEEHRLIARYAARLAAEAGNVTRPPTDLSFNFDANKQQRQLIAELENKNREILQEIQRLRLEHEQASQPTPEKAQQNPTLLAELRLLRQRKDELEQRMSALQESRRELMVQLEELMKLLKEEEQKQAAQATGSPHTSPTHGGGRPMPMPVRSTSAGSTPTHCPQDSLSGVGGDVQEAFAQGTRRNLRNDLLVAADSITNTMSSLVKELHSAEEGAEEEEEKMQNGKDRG
B5: Keratin-associated protein 5-9 (Homo sapiens), P26371 (parent)
chain: MGCCGCSGGCGSSCGGCDSSCGSCGSGCRGCGPSCCAPVYCCKPVCCCVPACSCSSCGKRGCGSCGGSKGGCGSCGCSQCSCCKPCCCSSGCGSSCCQCSCCKPYCSQCSCCKPCCSSSGRGSSCCQSSCCKPCCSSSGCGSSCCQSSCCKPCCSQSRCCVPVCYQCKI
B6: Protein FAM9B (Homo sapiens), Q8IZU0 (parent)
chain: MAAWGKKHAGKDPVRDECEERNRFTETREEDVTDEHGEREPFAETDEHTGANTKKPEDTAEDLTAKRKRMKMDKTCSKTKNKSKHALRKKQLKRQKRDYIHSLKLLNVLEEYITDEQKEEEEEEGEEEELIRIFQEQQKKWQQYRSVRRERLKEMKLLRDQFVKALEDFEDLCDRVFSDEDSELDN
partner: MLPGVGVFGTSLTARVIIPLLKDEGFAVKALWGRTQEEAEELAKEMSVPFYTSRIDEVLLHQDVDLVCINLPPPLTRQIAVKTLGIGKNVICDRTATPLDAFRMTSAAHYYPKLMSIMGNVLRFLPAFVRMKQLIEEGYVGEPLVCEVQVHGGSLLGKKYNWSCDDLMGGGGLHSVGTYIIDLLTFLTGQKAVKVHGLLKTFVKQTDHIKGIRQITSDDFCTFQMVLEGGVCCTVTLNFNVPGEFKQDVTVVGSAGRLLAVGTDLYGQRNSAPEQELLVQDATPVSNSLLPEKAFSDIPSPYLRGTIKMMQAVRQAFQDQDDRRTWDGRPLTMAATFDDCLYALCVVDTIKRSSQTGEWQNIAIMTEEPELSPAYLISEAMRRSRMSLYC
B7: Baculoviral IAP repeat-containing protein 7 (Homo sapiens), Q96CA5 (parent)
chain: MGPKDSAKCLHRGPQPSHWAAGDGPTQERCGPRSLGSPVLGLDTCRAWDHVDGQILGQLRPLTEEEEEEGAGATLSRGPAFPGMGSEELRLASFYDWPLTAEVPPELLAAAGFFHTGHQDKVRCFFCYGGLQSWKRGDDPWTEHAKWFPSCQFLLRSKGRDFVHSVQETHSQLLGSWDPWEEPEDAAPVAPSVPASGYPELPTPRREVQSESAQEPGGVSPAEAQRAWWVLEPPGARDVEAQLRRLQEERTCKVCLDRAVSIVFVPCGHLVCAECAPGLQLCPICRAPVRSRVRTFLS
partner: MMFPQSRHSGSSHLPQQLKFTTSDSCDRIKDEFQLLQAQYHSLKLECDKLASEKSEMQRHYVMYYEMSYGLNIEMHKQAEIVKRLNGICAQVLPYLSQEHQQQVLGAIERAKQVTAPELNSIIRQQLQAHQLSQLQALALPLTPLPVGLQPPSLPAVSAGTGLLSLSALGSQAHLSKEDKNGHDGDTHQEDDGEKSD

Variants of: B1
Details: with KRT17, Q04695
KRT17, Q04695, sequence (Q04695 whole entry): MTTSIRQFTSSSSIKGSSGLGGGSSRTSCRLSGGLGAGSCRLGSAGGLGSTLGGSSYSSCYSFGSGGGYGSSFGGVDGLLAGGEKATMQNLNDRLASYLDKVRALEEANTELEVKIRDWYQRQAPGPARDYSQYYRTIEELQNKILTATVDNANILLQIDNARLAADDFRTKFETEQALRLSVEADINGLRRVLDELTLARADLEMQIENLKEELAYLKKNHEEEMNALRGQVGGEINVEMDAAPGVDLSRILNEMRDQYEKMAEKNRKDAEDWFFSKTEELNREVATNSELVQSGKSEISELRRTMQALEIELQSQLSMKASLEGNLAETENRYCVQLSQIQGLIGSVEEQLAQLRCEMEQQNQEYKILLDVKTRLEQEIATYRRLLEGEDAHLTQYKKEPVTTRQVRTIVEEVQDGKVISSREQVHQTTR

Row | Variant | effect of a mutation on the interaction
1 | R559G | with no effect
2 | T552S | with no effect
3 | R415H | with no effect
4 | L210M | with no effect
5 | V523F | with no effect

Variants of: B1
Details: with tfp11_human TFIP11, Q9UBB9
tfp11_human TFIP11, Q9UBB9, sequence (Q9UBB9 whole entry): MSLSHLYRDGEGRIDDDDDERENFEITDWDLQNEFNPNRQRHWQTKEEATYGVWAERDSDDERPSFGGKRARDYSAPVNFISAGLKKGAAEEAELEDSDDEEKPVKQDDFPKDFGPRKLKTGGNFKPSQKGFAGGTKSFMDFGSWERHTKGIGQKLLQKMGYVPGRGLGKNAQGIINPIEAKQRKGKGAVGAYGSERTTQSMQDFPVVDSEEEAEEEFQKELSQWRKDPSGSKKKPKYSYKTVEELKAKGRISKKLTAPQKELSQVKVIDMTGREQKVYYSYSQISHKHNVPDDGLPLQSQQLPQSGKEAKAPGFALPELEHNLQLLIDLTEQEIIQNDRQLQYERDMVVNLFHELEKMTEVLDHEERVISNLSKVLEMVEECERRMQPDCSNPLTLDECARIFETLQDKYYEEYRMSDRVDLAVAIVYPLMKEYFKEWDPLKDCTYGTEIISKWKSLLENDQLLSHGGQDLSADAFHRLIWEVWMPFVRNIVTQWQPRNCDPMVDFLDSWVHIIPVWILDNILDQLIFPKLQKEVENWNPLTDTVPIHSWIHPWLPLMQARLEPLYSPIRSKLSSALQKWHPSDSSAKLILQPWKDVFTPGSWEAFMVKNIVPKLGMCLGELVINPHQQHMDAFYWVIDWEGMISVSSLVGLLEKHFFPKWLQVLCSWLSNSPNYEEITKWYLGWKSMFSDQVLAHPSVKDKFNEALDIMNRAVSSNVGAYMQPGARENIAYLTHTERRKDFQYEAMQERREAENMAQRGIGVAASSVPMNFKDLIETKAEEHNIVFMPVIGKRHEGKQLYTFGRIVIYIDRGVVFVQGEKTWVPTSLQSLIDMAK

Row | Variant | effect of a mutation on the interaction
6 | R559G | with no effect
7 | T552S | with no effect
8 | R415H | with no effect
9 | L210M | with no effect
10 | V523F | with no effect

Variants of: B1
Details: with KRT15, P19012
KRT15, P19012, sequence (P19012 whole entry): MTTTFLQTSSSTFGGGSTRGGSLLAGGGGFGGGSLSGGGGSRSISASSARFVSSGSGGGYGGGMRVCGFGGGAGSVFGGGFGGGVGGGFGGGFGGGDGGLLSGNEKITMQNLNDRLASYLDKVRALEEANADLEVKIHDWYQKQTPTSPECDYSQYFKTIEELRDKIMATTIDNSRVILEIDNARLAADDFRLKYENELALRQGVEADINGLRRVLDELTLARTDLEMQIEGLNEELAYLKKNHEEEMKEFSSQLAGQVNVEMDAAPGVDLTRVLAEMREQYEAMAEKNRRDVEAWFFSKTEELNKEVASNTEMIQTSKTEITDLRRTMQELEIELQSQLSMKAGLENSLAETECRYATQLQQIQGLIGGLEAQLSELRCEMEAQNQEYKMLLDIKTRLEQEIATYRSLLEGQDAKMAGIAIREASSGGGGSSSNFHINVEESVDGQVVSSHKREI

Row | Variant | effect of a mutation on the interaction
11 | R559G | with no effect
12 | T552S | with no effect
13 | R415H | with no effect
14 | L210M | with no effect
15 | V523F | with no effect

Variants of: B2
Details: with ctbp2_human CTBP2, P56545

Row | Variant | effect of a mutation on the interaction
16 | T44M | with no effect

Variants of: B3
Details: with ats12_human ADAMTS12, P58397
ats12_human ADAMTS12, P58397, sequence (P58397 whole entry): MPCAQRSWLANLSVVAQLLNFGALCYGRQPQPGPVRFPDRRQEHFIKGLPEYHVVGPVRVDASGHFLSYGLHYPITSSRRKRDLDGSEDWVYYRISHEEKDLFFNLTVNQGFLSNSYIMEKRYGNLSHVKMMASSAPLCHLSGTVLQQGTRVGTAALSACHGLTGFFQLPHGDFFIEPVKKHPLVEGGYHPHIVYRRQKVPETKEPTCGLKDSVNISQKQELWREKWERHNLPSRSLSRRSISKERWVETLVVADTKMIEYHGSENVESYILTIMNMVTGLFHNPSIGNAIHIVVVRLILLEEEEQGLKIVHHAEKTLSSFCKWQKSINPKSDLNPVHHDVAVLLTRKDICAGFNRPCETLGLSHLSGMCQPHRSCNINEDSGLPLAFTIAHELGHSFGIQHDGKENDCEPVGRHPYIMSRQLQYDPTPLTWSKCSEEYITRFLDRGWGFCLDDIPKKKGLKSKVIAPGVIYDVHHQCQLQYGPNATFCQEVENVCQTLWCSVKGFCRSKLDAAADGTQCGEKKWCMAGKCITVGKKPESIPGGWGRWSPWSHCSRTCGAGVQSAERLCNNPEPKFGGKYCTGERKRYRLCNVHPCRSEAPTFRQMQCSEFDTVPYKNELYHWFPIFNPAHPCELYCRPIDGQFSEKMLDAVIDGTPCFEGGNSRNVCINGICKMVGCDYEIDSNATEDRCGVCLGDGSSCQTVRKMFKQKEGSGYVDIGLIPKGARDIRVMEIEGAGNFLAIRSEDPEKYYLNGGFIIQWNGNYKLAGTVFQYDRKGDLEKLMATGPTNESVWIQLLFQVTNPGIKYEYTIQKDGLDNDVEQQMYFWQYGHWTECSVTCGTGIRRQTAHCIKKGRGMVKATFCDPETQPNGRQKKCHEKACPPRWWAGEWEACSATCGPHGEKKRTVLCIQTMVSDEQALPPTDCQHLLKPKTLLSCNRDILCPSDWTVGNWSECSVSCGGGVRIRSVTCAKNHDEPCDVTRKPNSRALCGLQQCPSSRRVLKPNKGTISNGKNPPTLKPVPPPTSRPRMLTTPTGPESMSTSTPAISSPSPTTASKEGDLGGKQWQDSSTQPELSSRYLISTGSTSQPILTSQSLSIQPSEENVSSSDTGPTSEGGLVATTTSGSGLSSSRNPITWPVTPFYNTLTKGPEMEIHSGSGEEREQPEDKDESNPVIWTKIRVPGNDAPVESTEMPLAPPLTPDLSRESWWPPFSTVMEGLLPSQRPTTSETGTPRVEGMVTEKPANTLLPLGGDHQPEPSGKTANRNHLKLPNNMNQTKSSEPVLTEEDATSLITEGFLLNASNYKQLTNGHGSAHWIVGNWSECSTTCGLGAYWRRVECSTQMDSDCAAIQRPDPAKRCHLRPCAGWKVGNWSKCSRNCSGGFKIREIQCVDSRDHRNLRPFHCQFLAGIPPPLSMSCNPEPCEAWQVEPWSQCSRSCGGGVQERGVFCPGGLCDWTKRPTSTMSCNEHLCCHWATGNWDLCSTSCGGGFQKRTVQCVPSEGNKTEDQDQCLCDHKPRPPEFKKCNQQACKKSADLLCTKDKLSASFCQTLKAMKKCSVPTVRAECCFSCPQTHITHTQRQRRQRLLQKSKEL

Row | Variant | effect of a mutation on the interaction
17 | C138S | disrupting interaction strength

Variants of: B3
Details: with cpsf5_human NUDT21, O43809
cpsf5_human NUDT21, O43809, sequence (O43809 whole entry): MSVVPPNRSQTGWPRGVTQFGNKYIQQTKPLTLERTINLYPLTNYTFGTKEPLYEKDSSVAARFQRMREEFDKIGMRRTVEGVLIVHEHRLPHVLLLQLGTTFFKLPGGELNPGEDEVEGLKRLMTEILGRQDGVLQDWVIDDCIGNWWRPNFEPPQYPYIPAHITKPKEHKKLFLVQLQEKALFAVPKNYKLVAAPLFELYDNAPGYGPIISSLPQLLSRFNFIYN

Row | Variant | effect of a mutation on the interaction
18 | C138S | disrupting interaction strength

Variants of: B4
Details: with dtnb_human DTNB

Row | Variant | effect of a mutation on the interaction
19 | A279T | with no effect

Variants of: B5
Details: with catz_human CTSZ

Row | Variant | effect of a mutation on the interaction
20 | Y40C | disrupting interaction strength

Variants of: B5
Details: with sdc3_human SDC3, O75056
sdc3_human SDC3, O75056, sequence (O75056 whole entry): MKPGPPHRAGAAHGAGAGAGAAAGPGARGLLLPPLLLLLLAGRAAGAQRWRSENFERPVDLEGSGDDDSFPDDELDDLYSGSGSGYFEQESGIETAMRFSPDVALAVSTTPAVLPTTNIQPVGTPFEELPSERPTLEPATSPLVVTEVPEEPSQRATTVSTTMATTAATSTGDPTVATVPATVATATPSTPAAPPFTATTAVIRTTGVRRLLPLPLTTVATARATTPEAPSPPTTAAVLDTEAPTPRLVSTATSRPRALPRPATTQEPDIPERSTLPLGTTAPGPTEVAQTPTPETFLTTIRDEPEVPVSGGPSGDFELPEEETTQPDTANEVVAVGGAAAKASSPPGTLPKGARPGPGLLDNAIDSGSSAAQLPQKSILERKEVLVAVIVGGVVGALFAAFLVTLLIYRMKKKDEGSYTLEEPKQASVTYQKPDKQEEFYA

Row | Variant | effect of a mutation on the interaction
21 | Y40C | with no effect

Variants of: B6
Details: with gfod1_human GFOD1, Q9NXC2

Row | Variant | effect of a mutation on the interaction
22 | R23H | with no effect

Variants of: B7
Details: with tle5_human TLE5, Q08117

Row | Variant | effect of a mutation on the interaction
23 | H164R | with no effect

Variants of: B7
Details: with tle5_human TLE5, Q08117
Remark: another data set of the same source

Row | Variant | effect of a mutation on the interaction
24 | H164R | with no effect
